According to patent US20200317768A1 (published 2020):
Changes are numbered by the printed parent chain.

T1: cynomolgus monkey FcγRIIa1 extracellular domain with C-terminal His-tag (cynomolgus monkey)
T1 construct: Expressed in FreeStyle 293 cells and purified; also called cyno FcγRIIa1; cynoFcgRIIa1; not shown: C-terminal His-tag
T1 chain: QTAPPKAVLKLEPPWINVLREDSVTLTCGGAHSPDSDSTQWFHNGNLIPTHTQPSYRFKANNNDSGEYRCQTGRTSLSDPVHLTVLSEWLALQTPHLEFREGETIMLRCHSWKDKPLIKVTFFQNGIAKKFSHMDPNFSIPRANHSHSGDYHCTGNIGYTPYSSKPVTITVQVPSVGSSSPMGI

T2: cynomolgus monkey FcγRIIa2 extracellular domain with C-terminal His-tag (cynomolgus monkey)
T2 construct: Expressed in FreeStyle 293 cells and purified; also called cyno FcγRIIa2; cynoFcgRIIa2; not shown: C-terminal His-tag
T2 chain: T1 chain with P95T, T121A, I127K, A128S, K130N, D135N, R142Q

T3: cynomolgus monkey FcγRIIa3 extracellular domain with C-terminal His-tag (cynomolgus monkey)
T3 construct: Expressed in FreeStyle 293 cells and purified; also called cyno FcγRIIa3; cynoFcgRIIa3; not shown: C-terminal His-tag
T3 chain: T1 chain with P95T, T121A, A128S, H133P, D135N

T4: cynomolgus monkey FcγRIIb extracellular domain with C-terminal His-tag (cynomolgus monkey)
T4 construct: Expressed in FreeStyle 293 cells and purified; also called cyno FcγRIIb; cynoFcγRIIb; not shown: C-terminal His-tag
T4 chain: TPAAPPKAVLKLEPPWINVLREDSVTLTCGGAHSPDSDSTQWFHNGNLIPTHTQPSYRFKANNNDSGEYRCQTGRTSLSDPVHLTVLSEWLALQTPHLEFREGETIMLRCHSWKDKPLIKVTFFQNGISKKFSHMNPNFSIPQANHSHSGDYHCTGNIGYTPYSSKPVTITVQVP

T5: cynomolgus monkey FcγRIIIaS extracellular domain with C-terminal His-tag (cynomolgus monkey, UniProt Q8SPW2 21-206 at identity 1.00))
T5 construct: Expressed in FreeStyle 293 cells and purified; also called cyno FcγRIIIaS; cynoFcγRIIIaS; not shown: C-terminal His-tag
T5 chain: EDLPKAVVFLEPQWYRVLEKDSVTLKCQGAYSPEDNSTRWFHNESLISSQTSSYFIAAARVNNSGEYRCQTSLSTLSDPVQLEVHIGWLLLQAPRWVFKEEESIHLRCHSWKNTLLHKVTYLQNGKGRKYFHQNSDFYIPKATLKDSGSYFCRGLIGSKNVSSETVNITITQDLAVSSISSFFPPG

T6: human FcγRIIaH extracellular domain with C-terminal His-tag (human, UniProt P12318 34-217)
T6 construct: Expressed in FreeStyle 293 cells and purified; also called human FcγRIIa (type H); FcgRIIaH; not shown: C-terminal His-tag
T6 sequence: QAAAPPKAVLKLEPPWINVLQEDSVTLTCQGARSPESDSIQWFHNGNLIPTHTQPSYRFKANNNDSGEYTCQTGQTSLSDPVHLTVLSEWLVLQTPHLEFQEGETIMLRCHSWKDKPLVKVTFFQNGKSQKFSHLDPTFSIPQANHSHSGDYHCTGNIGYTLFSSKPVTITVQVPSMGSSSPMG

T7: human FcγRIIb extracellular domain with C-terminal His-tag (human, UniProt P31994 43-217)
T7 construct: Expressed in FreeStyle 293 cells and purified; also called humanFcgRIIb; not shown: C-terminal His-tag
T7 sequence: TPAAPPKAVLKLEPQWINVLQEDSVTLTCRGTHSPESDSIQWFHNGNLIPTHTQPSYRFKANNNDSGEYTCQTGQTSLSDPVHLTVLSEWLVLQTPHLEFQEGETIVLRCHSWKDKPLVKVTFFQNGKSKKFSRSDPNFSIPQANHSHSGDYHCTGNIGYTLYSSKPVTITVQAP

B1: M103205H795-MY182 / M103202L889-SK1 (antibody, human IgG1, kappa)
heavy: QVTLKESGPVLVKPTETLTLTCTVSGIDLSHDDISWVRQAPGKGLEWVGIISYAGSTYYASWAKGRLTISKDTSKNQVVLTMTNMDPVDTATYYCARGVPAYSHGGDLWGQGTLVTVSSASTKGPSVFPLAPSSKSTSGGTAALGCLVKDYFPEPVTVSWNSGALTSGVHTFPAVLQSSGLYSLSSVVTVPSSSLGTQTYICNVNHKPSNTKVDKKVEPKSCDKTHTCPPCPAPELLNGPSVFLFPPKPKDTLMISRTPEVTCVVVDVSEEDPEVKFNWYVDGVEVHNAKTKPREEQYNSTYRVVSVLTVLHQDWLNGKEYKCKVSNKALPAPIEKTISKAKGQPREPQVYTLPPSREEMTKNQVSLTCLVKGFYPSDIAVEWESNGQPENNYKTTPVVLDSDGSFFLYSKLTVDKSRWQQGNVFSCSVMHEALHNHYTQKSLSLSP
light: DIVMTQSPATLSLSPGERATLSCTSSQSVYHANWLSWFQQKPGQPPKLLIYWASTLAYGVPSRFSGSGSGTDFTLTISSLQPEDAATYYCAGGYGGGRYAFGQGTKVEIKRTVAAPSVFIFPPSDEQLKSGTASVVCLLNNFYPREAKVQWKVDNALQSGNSQESVTEQDSKDSTYSLSSTLTLSKADYEKHKVYACEVTHQGLSSPVTKSFNRGEC
notes: Position 396 variant derived from MY052, expressed with M103202L889-SK1 as light chain
B2: M103205H795-MY184 / M103202L889-SK1 (antibody, human IgG1, kappa)
heavy: B1 heavy with V398Y
light: B1 light
notes: as for B1
B3: M103205H795-MY183 / M103202L889-SK1 (antibody, human IgG1, kappa)
heavy: B1 heavy with V398W
light: B1 light
notes: as for B1

Target: T1, cynomolgus monkey FcγRIIa1 …
Assay: SPR (Biacore); KD of SG1 divided by KD of the variant for this FcgR;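 further: relative to parent M103205H795-SG1 carrying the SG1 human heavy chain constant region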

**Q.** With B1 as the binder, how does the “KD fold (SG1 = 1)” value read?
**A.** The value was 1.5 fold.

**Q.** For B2, which “KD fold (SG1 = 1)” value is on record?
**A.** The value was 1.7 fold.

**Q.** Which “KD fold (SG1 = 1)” value does the source give for B3 here?
**A.** Its value is 1.5 fold.

Target: T2, cynomolgus monkey FcγRIIa2 …
Assay: as above

**Q.** With B1 as the binder, how does the “KD fold (SG1 = 1)” value read?
**A.** Its value is 2.3 fold.

**Q.** With B2 as the binder, how does the “KD fold (SG1 = 1)” value read?
**A.** Its value is 2.6 fold.

**Q.** For B3, which “KD fold (SG1 = 1)” value is on record?
**A.** The value was 2.5 fold.

Target: T3, cynomolgus monkey FcγRIIa3 …
Assay: as above

**Q.** B1 was tested. Which “KD fold (SG1 = 1)” value did it give?
**A.** Its value is 2.2 fold.

**Q.** For B2, which “KD fold (SG1 = 1)” value is on record?
**A.** Its value is 2 fold.

**Q.** With B3 as the binder, how does the “KD fold (SG1 = 1)” value read?
**A.** Its value is 2 fold.

Target: T4, cynomolgus monkey FcγRIIb extracellular …
Assay: as above

**Q.** How did the “KD fold (SG1 = 1)” value turn out when B1 was run?
**A.** Its value is 1.9 fold.

**Q.** B2 was tested. Which “KD fold (SG1 = 1)” value did it give?
**A.** The value was 2 fold.

**Q.** For B3, which “KD fold (SG1 = 1)” value is on record?
**A.** The value was 1.9 fold.

Target: T5, cynomolgus monkey FcγRIIIaS …
Assay: as above

**Q.** Which “KD fold (SG1 = 1)” value does the source give for B1 here?
**A.** The value was 0.1 fold.

**Q.** With B2 as the binder, how does the “KD fold (SG1 = 1)” value read?
**A.** The value was 0.11 fold.

**Q.** With B3 as the binder, how does the “KD fold (SG1 = 1)” value read?
**A.** Its value is 0.1 fold.

These binders were tested against T6, human FcγRIIaH extracellular domain … in the same assay as above.

**Q.** How did the “KD fold (SG1 = 1)” value turn out when B1 was run?
**A.** The value was 0.5 fold.

**Q.** B2 was tested. Which “KD fold (SG1 = 1)” value did it give?
**A.** The value was 0.6 fold.

**Q.** For B3, which “KD fold (SG1 = 1)” value is on record?
**A.** Its value is 0.6 fold.

What follows are binders tested against T7, human FcγRIIb extracellular domain with … in the same assay as above.

**Q.** How did the “KD fold (SG1 = 1)” value turn out when B1 was run?
**A.** Its value is 3.8 fold.

**Q.** How did the “KD fold (SG1 = 1)” value turn out when B2 was run?
**A.** The value was 4.2 fold.

**Q.** With B3 as the binder, how does the “KD fold (SG1 = 1)” value read?
**A.** Its value is 4.2 fold.

These binders were tested against T8, human FcγRIIIaV extracellular domain with C-terminal His-tag (human, UniProt P08637 17-208) in the same assay as above.
T8 construct: Expressed in FreeStyle 293 cells and purified; also called FcgRIIIaV; not shown: C-terminal His-tag
T8 sequence (P08637 17-208 F176V): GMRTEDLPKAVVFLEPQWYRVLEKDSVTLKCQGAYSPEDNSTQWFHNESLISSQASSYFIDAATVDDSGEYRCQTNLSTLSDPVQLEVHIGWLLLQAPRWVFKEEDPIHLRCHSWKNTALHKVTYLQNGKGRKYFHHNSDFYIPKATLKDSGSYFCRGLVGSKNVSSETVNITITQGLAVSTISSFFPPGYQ

**Q.** B1 was tested. Which “KD fold (SG1 = 1)” value did it give?
**A.** The value was 0.12 fold.

**Q.** B2 was tested. Which “KD fold (SG1 = 1)” value did it give?
**A.** Its value is 0.12 fold.

**Q.** Which “KD fold (SG1 = 1)” value does the source give for B3 here?
**A.** The value was 0.11 fold.
